Reference: patent US20250230239A1
Numbering of substitutions follows the chain as printed. One block for each binder: values may come before it.

Target: recombinant his-tagged and biotinylated CD3ε protein (AcroBiosystems, CDE-H8223), human (human) (UniProt P07766)
Test: BLI (Octet RED96), biotinylated his-tagged CD3ε on SSA biosensor, bispecific as analyte 200 to 3.125 nM

Sequence of recombinant his-tagged and biotinylated CD3ε protein (AcroBiosystems, CDE-H8223), human (human) (P07766 23-126 limits assumed): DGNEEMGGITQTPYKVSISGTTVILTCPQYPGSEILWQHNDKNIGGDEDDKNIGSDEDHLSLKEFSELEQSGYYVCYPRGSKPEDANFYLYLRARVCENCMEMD

Kd: 1.66 to 5.64 nM
B1: monovalent bispecific antibody comprising anti-CD3 scFv v619_HLh (SEQ ID NO: 28) and a Her2-binding domain (bispecific antibody, part only; not given: Her2 arm and Fc, not shown: another chain or arm of the molecule; a dimerising Fc or GST; small tags and cut ends)
scFv: EVQLVESGGGLVQPGGSLKLSCAASGFTFSTYAMNWVRQASGKGLEWVGRIRSKYNNYATYYADSVKDRFTISRDDSKNTAYLQMNSLKTEDTAVYYCVRHGNFGNSYVSWWAYWGQGTLVTVSSGGGGSGGGGSGGGGSQTVVTQEPSLTVSPGGTVTLTCGSSTGAVTTSNYVNWVQQKPGQAPRGLIGGTNKRAPGTPARFSGSLIGGKAALTLSGAQPEDEAEYYCVLWYSNRWVFGGGTKLTVL

Kd: 11 nM
B2: monovalent bispecific antibody comprising anti-CD3 scFv v619-HLh-CC4 (SEQ ID NO: 32) and a Her2-binding domain (bispecific antibody, part only; not given: Her2 arm and Fc, not shown: another chain or arm of the molecule; a dimerising Fc or GST; small tags and cut ends)
scFv: B1 scFv with W112F, Q117C, Q184C
modifications: Engineered VH-VL disulfide (Cys at VH 117 and VL 44 of the domains) within the scFv
